The results in this text go back to the RNAGym collection of RNA variant scans (doi:10.1093/molbev/msab373).

To fix the notation:
B1: Azoarcus group I ribozyme (parent)
chain: GUGCCUUGCGCCGGGAAACCACGCAAGGGAUGGUGUCAAAUUCGGCGAAACCUAAGCGCCCGCCCGGGCGUAUGGCAACGCCGAGCCAAGCUUCGGCGCCUGCGCCGAUGAAGGUGUAGAGACUAGACGGCACCCACCUAAGGCAAACGCUAUGGUGAAGGCAUAGUCCAGGGAGUGGCGAAAGUCACACAAACCGG

The variants in this data set derive from B1. As to the kind of experiment: reverse-splicing fitness (ratio to wild type); higher = more active; in vitro selection; Mg2+ level not given. In a few lines:
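An in vitro group I ribozyme library with randomized positions was T7-transcribed and gel-purified. In triplicate, 10 pmol RNA in EPPS pH 7.5 was reacted with 50 pmoles of a 30-nt RNA substrate for 1 h at 37 °C across several added MgCl2 levels (1–48 mM), then stopped with EDTA. Products were reverse transcribed from a substrate-complementary primer, PCR-amplified and sequenced (HiSeq 4000). Fitness is a variant's read proportion after selection over that before, normalised to wild type.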
C82G A111C A120C A145U C150G C169G: the reverse-splicing fitness amounted to 0.00765.
For C82U A111C A120C C150A C169A U176G, the reverse-splicing fitness amounted to 0.00712.
Then C82A A111U A120C A145U C150G C169G U176G, with 0.00698; and C82A A111G A120C A145C C150U, with 0.0161; and C82U A111U A145G C150U C169A U176C, with 0.0159.
The value for A111C A120G A145U C169U U176C was 0.0424; that for A111G A120C A145G C169U U176A was 0.064.
Regarding C82A A120U A145U, the reverse-splicing fitness amounted to 0.148.
The value for C82G A120G A145C C150A C169G U176C was 0.0136.
Then C82A A111C A145G C150A C169U U176A, with 0.0149; and A111G A120G C150U C169G, with 0.177; and C82G A111U A120G A145U C150U C169A U176C, with 0.0128.
The value for C82A A111U A120U C150G C169G U176G was 0.00289; that for C82A A111C A120G A145U C150U C169A U176G was 0.00604; that for A111G A120C C150U C169A U176G was 0.00384.
As for C82A A111C A120U A145U C150A C169A U176C, the reverse-splicing fitness amounted to 0.00334.
Consider C82U A111C A120C C169G U176C, for which the reverse-splicing fitness amounted to 0.0186.
The value for C82U A111G A120U A145U C150U was 0.0272.
On to C82A A111C C150U C169G U176G, for which the reverse-splicing fitness turned out to be 0.00899.
For the variant C82G A120C A145G C150U, the reverse-splicing fitness came out at 0.163.
Then C82A A120U A145U C150G C169U U176G, with 0.0021; and A111G A120C A145G C150U C169U U176G, with 0.00537.
With A111G A120U A145C C150U, the reverse-splicing fitness worked out at 0.264.
On to C82A A111G A120U A145C C150G C169G U176C, for which the reverse-splicing fitness turned out to be 0.00289.
With C82A A111U A120C C169A U176G, the reverse-splicing fitness was found to be 0.00734.
As to C82G A111G A120G A145C C169U U176C, the reverse-splicing fitness came to 0.0166.
Then C82A A111G A120U A145U C169G, with 0.00329; and C82A A111U A145G U176C, with 0.151.
The value for C82A A111C A120C A145U C150G C169U U176A was 0.00763.
The value for C82U A111U A120U A145G C169G U176G was 0.00146; that for C82A A111U A145U C150A C169U was 0.0108.
As to C82U A111U A120U A145C C150U C169A U176G, the reverse-splicing fitness was 0.00178.
For the variant C82U A111G A120C A145G C150A, the reverse-splicing fitness came to 0.0129.
Turning to A111C A120U C150G C169U U176G, the reverse-splicing fitness worked out at 0.00276.
In the case of C82U A120G C169G U176A, the reverse-splicing fitness came to 0.0215.
Turning to C82G A120U A145G C150G C169U, the reverse-splicing fitness was determined as 0.00739.
In the case of A111C A120U A145C C150A C169U U176C, the reverse-splicing fitness stood at 0.00283.
Turning to C82U A111U A120U A145G C150G C169G U176C, the reverse-splicing fitness amounted to 0.00477.
On to C82A A111G A120C A145G C150G, for which the reverse-splicing fitness came to 0.0105.
Then C82U A145C C150A C169G, with 0.00677; and A111C A120U C150G, with 0.0546; and C82G A111U C150G U176C, with 0.0207.
Then C82G A111U C150G U176A, with 0.01.
As to C82U A111G A120G A145G C169U U176G, the reverse-splicing fitness came to 0.00414.
For C82A A111U A120G A145U C150G U176C, the reverse-splicing fitness stood at 0.00834.
Take C82U A120U C150U C169A: the reverse-splicing fitness was found to be 0.00404.
Take A111C A120C C169A U176A: the reverse-splicing fitness was 0.0152.
Then A111G A120U C150U C169G U176G, with 0.00215; and C82A A111C A120G A145G C150G C169U U176C, with 0.0123; and C82A C150G C169A, with 0.00934.
For the variant C82U A120U A145G C150G, the reverse-splicing fitness was 0.0229.
With A111C A120C C150A C169U U176A, the reverse-splicing fitness stood at 0.0208.
With C82U A111U A145C C150U C169U U176G, the reverse-splicing fitness was found to be 0.00525.
As to C82G A120U C150A U176C, the reverse-splicing fitness came to 0.0129.
The value for C82G A120C A145C C150U C169G was 0.00749; that for C82U A120G A145C C150G U176C was 0.00608; that for A111C A120C C150U C169U U176C was 0.0327.
In the case of A111G A120G A145U C150G C169A U176C, the reverse-splicing fitness stood at 0.0123.
The value for C82A A111U A145G C150A C169A U176A was 0.0197; that for C82G A111C A120U A145U U176C was 0.0197; that for C82U A111U A120U A145C C150U C169G U176G was 0.00171.
Consider A111G A120C A145U C150A, for which the reverse-splicing fitness was 0.111.
The value for C82U A111U A120U A145U C150A C169A U176G was 0.00206; that for C82A A111C A120U A145C C150G U176A was 0.00333.
As to C82U A145U U176A, the reverse-splicing fitness was 0.412.
The value for C82A A120G A145U C150U U176A was 0.0108; that for C82A A111C A120U A145U C150U C169A was 0.00321; that for C82A A111G A120C A145C U176A was 0.0165.
Regarding C82G A111C A120G U176A, the reverse-splicing fitness amounted to 0.0162.
C82G A111C A120G U176C: the reverse-splicing fitness came to 0.0226.
The value for C82A A111U A145C C150G C169U U176A was 0.00896; that for C82G A111C A120C A145U C150G C169U U176G was 0.0068; that for C82G A120G A145C was 0.0276.
The value for A145U C150U C169A U176G was 0.00551.
Regarding C82G A111G A120G C169A U176G, the reverse-splicing fitness is 0.00429.
Regarding C82U A111C A145C C150U U176A, the reverse-splicing fitness was found to be 0.0229.
The value for C82A A111U C150A C169U U176A was 0.0167; that for C82A A111U A120C C150A C169U U176C was 0.0167; that for A120C A145C C169U U176C was 0.177.
For C82G A111C A145C C150U C169U U176A, the reverse-splicing fitness was determined as 0.013.
Take C82G A111G A120C A145C C150U C169U U176A: the reverse-splicing fitness amounted to 0.013.
The value for C82A A111U A120C A145G C150U C169A was 0.0113.
The value for C82A A145C C150A C169U U176A was 0.015.
As for C82G A145G C150G U176C, the reverse-splicing fitness was determined as 0.0452.
